B1: HDV Ribozyme (parent)
chain: GGCCGGCAUGGUCCCAGCCUCCUCGCUGGCGCCGGCUGGGCAACAUUCCGAGGGGACCGUCCCCUCGGUAAUGGCGAAUGGGACCCA

Variants of: B1
Assay: self-cleavage, relative activity (ratio to wild type); higher = more cleavage; co-transcriptional

| Variant | self-cleavage |
| --- | --- |
| GGCCGGCAUGGUCCCAGCCUCCUCGCUGGCGCCGGCUGGGCAACAUUCCGAGGGGACCGUACCCUCGGUGAUGGCGAAUGGGACCCA [C61A A70G] | 0.812 |
| GGCCGGCAUGGUCCCAGCCUCCUCGCUGGCGCCGGCUGGGCAACAUUCCGAGGGGACGGUCCCCUCGGUAAUUGCGAAUGGGACCCA [C58G G73U] | 0.217 |
| GGCCGGCAUGGUCCCAGCCUCCUCGCUGGCGCCGGCUGGGCAACAUUCCGAGGGGACCGUCCUCUCGGUAAUGGCGGAUGGGACCCA [C63U A77G] | 0.882 |
| GGCCGGCAUGGUCCCAGCCUCCUCGCUGGCGCCGGCUGGGCAACAUUCCGAGGGGACCGUCCCCUCGGCAAUGGCGAAUGAGACCCA [U69C G81A] | 0.323 |
| GGCCGGCAUGGUCCCAGCCACCUCGCUGGCGCCGGCCGGGCAACAUUCCGAGGGGACCGUCCCCUCGGUAAUGGCGAAUGGGACCCA [U20A U37C] | 0 |
| GGCCGGCAUGGUCCCAGCCUCCUCGCUGGCGCCGGCUGGGCAACAUUCCGGGGGGACCGUCCCCUCGGUAAAGGCGAAUGGGACCCA [A51G U72A] | 0.665 |
| GGCCGGCAUGUUCCCAGCCUCCUCGCUGGCGUCGGCUGGGCAACAUUCCGAGGGGACCGUCCCCUCGGUAAUGGCGAAUGGGACCCA [G11U C32U] | 0.215 |
| GGCCGGCAUGGUCCCAGCCUCCUCGCUGGCGCCGGCUGGGCAACUUUCCGAGGGGACCGUCCCCUCGGUAAUGGCGAAUGGGGCCCA [A45U A83G] | 0.847 |
| GGCCGGCAUGGUCCCAGCCUCCUCGCUCGCGCCGGCUGGGCAACAUUCCGAGGGGACCGUCCCCUCCGUAAUGGCGAAUGGGACCCA [G28C G67C] | 0.0923 |
| GGCGGGGAUGGUCCCAGCCUCCUCGCUGGCGCCGGCUGGGCAACAUUCCGAGGGGACCGUCCCCUCGGUAAUGGCGAAUGGGACCCA [C4G C7G] | 0.0875 |
| GGCCGGCAUGGUCCCAGCCUCCUCGCUGGCGCCGGCUGGGCCACAUUCCGAGGGGACCGUCCCCUCGGCAAUGGCGAAUGGGACCCA [A42C U69C] | 0.399 |
| GGCCGGCAUGGUCCCAGCCUCCUCGCUGGCGCCGGCUGGGCAACAUUCCGAGGUGACCGUCCUCUCGGUAAUGGCGAAUGGGACCCA [G54U C63U] | 0.892 |
| GGCCGGCAUGGUCCCAGCCUCCUCGCUGGCGCCGGCUGGGCAACAUUCCGAGGGGACGGUGCCCUCGGUAAUGGCGAAUGGGACCCA [C58G C61G] | 0.88 |
| GGCCGGCAUGGUCCCAGCCUCCUCGCUGGCGCCGGCUGGGCAACAUUCCCAGGGGACCGUCCCCCCGGUAAUGGCGAAUGGGACCCA [G50C U65C] | 1.05 |
| GGCCGGCAUGGUCCCAGCCUCCUCGCUGGCGCCGGCUAGGCAACAUUCCGAGGGGACCGACCCCUCGGUAAUGGCGAAUGGGACCCA [G38A U60A] | 0.117 |
| GGCCGGCAUGAUCCCAGCCUCCUCGCUGGCGCCGGCUGGGCAACAUUCCGAGGGGACCGUCCCCUCGGUAAUGGCGAAUGGGACCGA [G11A C86G] | 0.306 |
| GGCCGGCAUGGUCCCAGCCUCCUCGCUGGCGCCGGCUGGGCAACAUUCCGAGGGGACCGUCCCGUCGGUAAUGGCGCAUGGGACCCA [C64G A77C] | 0.431 |
| GGCCGGCAUGGUCCCAGGCUCCUCGCUGGCGCCGGCUGGGCAACAUUCCGAGGGGACCGUCCCCUCGGUAAUGGCGAAUGGGACUCA [C18G C85U] | 0.095 |
| GGCCGGCAUGGUCCCAGCCUCCUCGCUGGCGCCGGCUGGGCAACAUUCAGAGGGGACCGUCCCCUCGGUAAUGGCGAAUCGGACCCA [C49A G80C] | 0.0665 |
| GGCCGGCAUGGUCCCAGCAUCCUCGCUGGCGCCGGCCGGGCAACAUUCCGAGGGGACCGUCCCCUCGGUAAUGGCGAAUGGGACCCA [C19A U37C] | 0.0845 |
| GGCCGGCAAGGUCCCAGCCUCCUCGCUGGCGCCGGCUGGGCAACAUUCCGAGGGAACCGUCCCCUCGGUAAUGGCGAAUGGGACCCA [U9A G55A] | 1.09 |
| GGCCGGCAUGGUCCCAGCCUCCUCGCUGGCGCCGGCUGGGCAACAUUCCGAGGGCACCGUCCCCUCGGUAAUCGCGAAUGGGACCCA [G55C G73C] | 0.479 |

| Variant | self-cleavage |
| --- | --- |
| GGCCGGCAUGGUCCCAGCCUCCUCGCUGGCUCCGGCUGGGCAACAUUCCGAGGGGACCGUCCCCUCGGUAAUGGCUAAUGGGACCCA [G31U G76U] | 0.585 |
| GGCCGGCAUUGUCCCAGCCUCCUCGCUGGCGCCGGCUGGGCAACGUUCCGAGGGGACCGUCCCCUCGGUAAUGGCGAAUGGGACCCA [G10U A45G] | 1.07 |
| GGCCGGCAUGGUCCCAGCCUCCUCGCUGGCGCCGGCUGGACAACAUUCCGAGGGGAACGUCCCCUCGGUAAUGGCGAAUGGGACCCA [G40A C57A] | 1.18 |
| GGCCGGCAUGGUUCCAGCCUCCUCGCUGGCGCCGGCUGGGCAACAUUCAGAGGGGACCGUCCCCUCGGUAAUGGCGAAUGGGACCCA [C13U C49A] | 0.727 |
| GGCCGGCAUGGUCCCAGCCUCCUCGCUGGCGCCGGCUGGGCAACAUUCCGAGGGGACCUUCCCCUCAGUAAUGGCGAAUGGGACCCA [G59U G67A] | 1.05 |
| GGUCGGCAUGGUCCCAGCAUCCUCGCUGGCGCCGGCUGGGCAACAUUCCGAGGGGACCGUCCCCUCGGUAAUGGCGAAUGGGACCCA [C3U C19A] | 0.0573 |
| GGCCGGCAUGGUCCCAGCCUCCUCGCUGGCGCCGGCUCGGCAACAUUCCGAGGGGACCGUCCCCUCGGUAAUGGCGACUGGGACCCA [G38C A78C] | 0 |
| GGCCGGCAUGGUGCCAGCCUCCUCGCUGGCGCCGGCUGGGCAACAUUCCGAGGGGACCGUCCCCUCGGUAAUGGCGAAUGGGAUCCA [C13G C84U] | 0.095 |
| GGCCGGCAUGGUCCCAGCCUCCUCGCUGGCGCCGGCUGGGCAACAUCCCGAGGGGACCGUCCCCUCGGUAUUGGCGAAUGGGACCCA [U47C A71U] | 1.11 |
| GGCCGGAAUGGUCCCAGCCUCCUCGCUGGCGCCGGCUGGGCAACAUUCCGAGGGAACCGUCCCCUCGGUAAUGGCGAAUGGGACCCA [C7A G55A] | 0.627 |
| UGCCAGCAUGGUCCCAGCCUCCUCGCUGGCGCCGGCUGGGCAACAUUCCGAGGGGACCGUCCCCUCGGUAAUGGCGAAUGGGACCCA [G1U G5A] | 0.445 |
| GGCCGGCAUGGUCCCAGCCUCCUCGCUGGCGCCGGCUGGGCAACAUUCCGAGGCGACAGUCCCCUCGGUAAUGGCGAAUGGGACCCA [G54C C58A] | 0.923 |
| GGCCGGCAGGGUCCCAGCCUCCUCGCUGGCGCCGGCUGGGCAACAUUCCGAGGCGACCGUCCCCUCGGUAAUGGCGAAUGGGACCCA [U9G G54C] | 0.831 |
| GGCCGGCAUGGUCCCAGCCUCCUCGUUGGCGCCAGCUGGGCAACAUUCCGAGGGGACCGUCCCCUCGGUAAUGGCGAAUGGGACCCA [C26U G34A] | 0.36 |
| GACCGGCAUGGUCCCAGCCUCCUCGCGGGCGCCGGCUGGGCAACAUUCCGAGGGGACCGUCCCCUCGGUAAUGGCGAAUGGGACCCA [G2A U27G] | 0 |
| GGCCGGCAUGGUACGAGCCUCCUCGCUGGCGCCGGCUGGGCAACAUUCCGAGGGGACCGUCCCCUCGGUAAUGGCGAAUGGGACCCA [C13A C15G] | 0.142 |
| GGCCGGCAUGGUCCCAGCCUCCUCGCUGGCGCCGGCUGGGCAACAUUCCGAGGGGACCUUCCCCUCGGUACUGGCGAAUGGGACCCA [G59U A71C] | 0.895 |
| GGCCGGCAUGGUCCCAGCCUCCUCGCUGGCGCCGGCUGGGCAACAUUCCAAGGGGACCGUCCCCUGGGUAAUGGCGAAUGGGACCCA [G50A C66G] | 1.05 |
| GGCCGGCAUGGUCCCAGCCUCCUCGUUGGCGCUGGCUGGGCAACAUUCCGAGGGGACCGUCCCCUCGGUAAUGGCGAAUGGGACCCA [C26U C33U] | 0.872 |
| GGCCGGCAUGGUCCCAGCCUCCUCGCUGGCGCCGGCUAGGCAAUAUUCCGAGGGGACCGUCCCCUCGGUAAUGGCGAAUGGGACCCA [G38A C44U] | 0.136 |
| GGCCGGCAUGGUCCCAGCCUCCUCGCGGGCGCCGGCUGGGCAACAUUCCGAGGGGGCCGUCCCCUCGGUAAUGGCGAAUGGGACCCA [U27G A56G] | 1.06 |
| GGCCGGCAUGGUCCCAGCCUCCUCGCUGGCGCCGGCUGGGCAACAUUCGGAGGGGACCGUCCCCUCGGUAAUGACGAAUGGGACCCA [C49G G74A] | 0.132 |

| Variant | self-cleavage |
| --- | --- |
| GGCCGGCAUGGUCCCAGCCUCCUCGCUGGCGCCGGCUGGGCAACAUUGCGAGGGGACCGUGCCCUCGGUAAUGGCGAAUGGGACCCA [C48G C61G] | 1.06 |
| GGCCUGCAUGGUCCCAGCCUCCUCGCUGGCGCCGGCUAGGCAACAUUCCGAGGGGACCGUCCCCUCGGUAAUGGCGAAUGGGACCCA [G5U G38A] | 0.119 |
| GGCCGGCAUGGGCCCAGCCUCCUCGCUGGCGCCGGCUGGGCAACAUUGCGAGGGGACCGUCCCCUCGGUAAUGGCGAAUGGGACCCA [U12G C48G] | 0.831 |
| GACCGGCAUGGUCCCUGCCUCCUCGCUGGCGCCGGCUGGGCAACAUUCCGAGGGGACCGUCCCCUCGGUAAUGGCGAAUGGGACCCA [G2A A16U] | 0.0665 |
| GGCCGGCAUGGUCCCAGCCUCCUCGCUGGCGCCGGCUGGGCAACAUUCCGAGGGGACCGUCCCCUUGGUGAUGGCGAAUGGGACCCA [C66U A70G] | 0.903 |
| GGCCGGCAUGGUCCCAGCCUUCUCGCUGGCGCCGGCUGGGCAACAUUCUGAGGGGACCGUCCCCUCGGUAAUGGCGAAUGGGACCCA [C21U C49U] | 0.245 |
| GGCCGGCAUGGUCCCAGCCUCCUCGCUGGCGCCGGCUGGGCAACAUUCCGACGGGUCCGUCCCCUCGGUAAUGGCGAAUGGGACCCA [G52C A56U] | 1.12 |
| GGCCGGCAUGGUCCCAGCCUCCUCGCUGGCGCCGGCUGGGCAACAUUCCGAGGGGACCGUCCCUUCGGUAAUGGCGAAUGGGGCCCA [C64U A83G] | 1.02 |
| GGCCGGCAUGGUCCAAGCCUCCUCGCUGGCGCUGGCUGGGCAACAUUCCGAGGGGACCGUCCCCUCGGUAAUGGCGAAUGGGACCCA [C15A C33U] | 0.427 |
| GGCCGGCAUGGUCCCAGCUUCCUCGCUGGCGCCGGCUGGGCAACAUUCCGAAGGGACCGUCCCCUCGGUAAUGGCGAAUGGGACCCA [C19U G52A] | 0.137 |
| GGCCGGCAUGGUCCCAGCCUCCUCGCUGGCGCCGGCGGGGCAACAUUCCGGGGGGACCGUCCCCUCGGUAAUGGCGAAUGGGACCCA [U37G A51G] | 0.0639 |
| GGCCGGCAUGGUCCCAGCCUCCUCGCUGGCGCCGGCGGGGCAACAUUCCGAGGGGACCGUCCCCUCGGUAAUGGCGAAUGGGACCGA [U37G C86G] | 0.111 |
| GGCCGGGAUGGUCCCAGCCUCCUCGCUGGAGCCGGCUGGGCAACAUUCCGAGGGGACCGUCCCCUCGGUAAUGGCGAAUGGGACCCA [C7G C30A] | 0.0361 |
| GGCCGGCUUGGUCCCAGCCUCCUCGCUGGCGCCGGCUGGGCAUCAUUCCGAGGGGACCGUCCCCUCGGUAAUGGCGAAUGGGACCCA [A8U A43U] | 0.125 |
| GGCCGGCAUGGUCCCAGCCUCCUCGCUGGCGCCGGCUGGGCAACAUUCCGAGGGGACCGUCCCCUCGAUAAUUGCGAAUGGGACCCA [G68A G73U] | 0.251 |
| GGCCGGCAUGGUCCCAGCCUCCUCGCUGGCUCCGGCUGGGCAACAUUCCGAGGGGACCGUCCCCUCGGUAAUGCCGAAUGGGACCCA [G31U G74C] | 0.223 |
| AGCCGGCAUGGUCCCAGCCUCCUCGCUCGCGCCGGCUGGGCAACAUUCCGAGGGGACCGUCCCCUCGGUAAUGGCGAAUGGGACCCA [G1A G28C] | 0.219 |
| GGCCGGCAUGGUCCCAGCCUCCUCGCUGGCGCCGGCUGGUCAACAUUCCGAGGGGACCGUCCUCUCGGUAAUGGCGAAUGGGACCCA [G40U C63U] | 0.866 |
| GGCCGGCAUGGUCCCAGCCUCCUCGCUGGCGCCGGCUGGGCAACAUUCCGAGGGGACCGUCCCCUCGGUAAUGGCGAAUGCGGCCCA [G81C A83G] | 0.131 |
| GGCCGGCAUGGUCCCAGCCUCCUCGCUGGCGGCGGCUGGGCAACAUUCCGAGGGGACCGUCCCCACGGUAAUGGCGAAUGGGACCCA [C32G U65A] | 0.0545 |
